“And” between values parts separate entries of the source, which are not always exact repeats. Equal entries are not always repeated.
Legend:
[1] = molecular target: T1, human MASP-2 (endogenous, in normal human serum) (human, UniProt O00187 16-686); assay: cell-based or functional assay
[2] = molecular target: Mouse MASP-2 CCP1/CCP2/SP (mouse, UniProt Q91WP0 287-685, limits assumed); assay: BLI (Octet RED96), OMS858 on anti-human Fc capture sensors, MASP-2 protein 1.6-50 nM
Method: (§1) All measurements were conducted with the Octet RED96 system (ForteBio) using PBS containing 1% BSA and 0.02% Tween 20 as assay buffer. […] After one step of baseline, the captured sensors were submerged into wells containing different concentrations of the target proteins (1.6-50 nM) for the association step (120 sec), and then transferred to empty wells for the dissociation step (200 sec). In all experiments, the captured sensor was also dipped in a well containing no analyte to allow single reference subtraction to compensate for the natural dissociation of the captured antibody. The recorded binding sensorgrams were analyzed with Octet data analysis software (ForteBio) to determine binding affinity (KD).

[3] = molecular target: T2, Human MASP-2 CCP1/CCP2/SP (6xHis, E. coli, Example 10) (human, UniProt O00187 287-686, limits assumed); assay: as above
T2 construct: Expressed in BL21(DE3)pLysS E. coli and purified by IMAC; It may be the same protein as m6; also called catalytic fragment (CCP1-CCP2-SP domains) of human MASP-2; wild-type human H508
Method: as §1

Cyno MASP-2 CCP1/CCP2/SP = molecular target: T3, Cyno MASP-2 CCP1/CCP2/SP (cynomolgus monkey, UniProt O00187 287-686 (human entry), limits assumed); assay: as above
T3 construct: also called cynomolgus monkey MASP-2 CCP1/CCP2/SP
Method: as §1

[4] = molecular target: T4, Human MASP-2 CCP1/CCP2/SP H508Q 'dog-like' (human, UniProt O00187 287-686, limits assumed); assay: as above
T4 construct: also called dog-like variant of human MASP-2; MASP-2 H508Q
Method: as §1

[5] = molecular target: Recombinant human MASP-2 (specificity ELISA, Example 14) (human, UniProt O00187 16-686, limits assumed); assay: solid phase ELISA, immobilized protease, apparent KD by 4-parameter logistic fit
Description: (§2) The apparent dissociation constant (KD) was estimated by nonlinear regression using a 4-parameter logistic model.
Fold selectivity calculated as KD(related serine protease)/mean KD(MASP-2).

[6] = molecular target: T1, human MASP-2 (endogenous, in normal …); assay: cell-based or functional assay; remark: listed apart in the source
MASP-1 = molecular target: T5, MASP-1 (human, UniProt P48740 20-699, limits assumed); assay: solid phase ELISA, immobilized protease, apparent KD
T5 construct: Species read from 'Recombinant human MASP-2 or C1r, C1s, CFD, MASP-1 and MASP-3'
T5 sequence (looked up): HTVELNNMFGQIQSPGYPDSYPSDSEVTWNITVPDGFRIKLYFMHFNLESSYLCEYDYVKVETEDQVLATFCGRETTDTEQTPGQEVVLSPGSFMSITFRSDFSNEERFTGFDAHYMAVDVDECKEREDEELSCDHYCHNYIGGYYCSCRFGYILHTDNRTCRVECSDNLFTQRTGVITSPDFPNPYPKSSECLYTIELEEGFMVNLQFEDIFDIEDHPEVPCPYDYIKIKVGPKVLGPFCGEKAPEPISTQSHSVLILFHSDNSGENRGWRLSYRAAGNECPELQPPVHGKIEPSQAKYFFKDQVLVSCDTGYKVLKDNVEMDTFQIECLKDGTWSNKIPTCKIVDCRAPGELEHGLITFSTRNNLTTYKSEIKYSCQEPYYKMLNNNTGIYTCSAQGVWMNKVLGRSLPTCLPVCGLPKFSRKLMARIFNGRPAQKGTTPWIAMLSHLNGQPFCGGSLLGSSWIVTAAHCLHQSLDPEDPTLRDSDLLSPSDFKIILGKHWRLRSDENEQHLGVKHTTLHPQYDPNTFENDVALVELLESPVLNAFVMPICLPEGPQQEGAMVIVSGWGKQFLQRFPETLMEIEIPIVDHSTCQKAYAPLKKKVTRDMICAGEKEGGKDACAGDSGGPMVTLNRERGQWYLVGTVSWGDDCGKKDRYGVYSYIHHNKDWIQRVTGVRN
Description: as §2

C1r = molecular target: T6, C1r (human, UniProt P00736 18-705, limits assumed); assay: as above
T6 construct: Species read from 'Recombinant human MASP-2 or C1r, C1s, CFD, MASP-1 and MASP-3'
T6 sequence (looked up): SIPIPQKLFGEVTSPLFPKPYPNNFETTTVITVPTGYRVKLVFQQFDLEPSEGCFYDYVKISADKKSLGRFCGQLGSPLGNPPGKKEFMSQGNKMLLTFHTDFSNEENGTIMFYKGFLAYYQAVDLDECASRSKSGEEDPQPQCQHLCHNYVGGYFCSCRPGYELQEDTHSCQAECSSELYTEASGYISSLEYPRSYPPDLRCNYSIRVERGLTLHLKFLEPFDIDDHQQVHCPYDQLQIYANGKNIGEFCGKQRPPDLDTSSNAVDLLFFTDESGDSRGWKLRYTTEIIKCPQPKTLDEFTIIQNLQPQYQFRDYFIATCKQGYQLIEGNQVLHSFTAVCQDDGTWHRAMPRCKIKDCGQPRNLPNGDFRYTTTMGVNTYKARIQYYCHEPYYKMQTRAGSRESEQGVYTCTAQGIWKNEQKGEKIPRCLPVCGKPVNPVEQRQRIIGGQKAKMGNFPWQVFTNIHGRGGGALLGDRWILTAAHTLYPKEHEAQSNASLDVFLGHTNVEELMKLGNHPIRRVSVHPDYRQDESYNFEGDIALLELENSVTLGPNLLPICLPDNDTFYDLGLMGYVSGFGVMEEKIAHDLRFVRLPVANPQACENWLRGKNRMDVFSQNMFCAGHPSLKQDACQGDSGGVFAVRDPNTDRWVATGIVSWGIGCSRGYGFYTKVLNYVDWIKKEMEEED
Description: as §2

[7] = molecular target: mouse MASP-2 (endogenous, in mouse serum or hirudin plasma) (mouse, UniProt Q91WP0 20-685); assay: cell-based or functional assay
[8] = molecular target: cynomolgus monkey MASP-2 (endogenous, in cynomolgus monkey serum) (cynomolgus monkey, UniProt O00187 16-686 (human entry), limits assumed); assay: cell-based or functional assay
Sequence of cynomolgus monkey MASP-2 (endogenous, in cynomolgus monkey serum) (O00187 other isoform, or with tags, fused parts or gaps limits assumed): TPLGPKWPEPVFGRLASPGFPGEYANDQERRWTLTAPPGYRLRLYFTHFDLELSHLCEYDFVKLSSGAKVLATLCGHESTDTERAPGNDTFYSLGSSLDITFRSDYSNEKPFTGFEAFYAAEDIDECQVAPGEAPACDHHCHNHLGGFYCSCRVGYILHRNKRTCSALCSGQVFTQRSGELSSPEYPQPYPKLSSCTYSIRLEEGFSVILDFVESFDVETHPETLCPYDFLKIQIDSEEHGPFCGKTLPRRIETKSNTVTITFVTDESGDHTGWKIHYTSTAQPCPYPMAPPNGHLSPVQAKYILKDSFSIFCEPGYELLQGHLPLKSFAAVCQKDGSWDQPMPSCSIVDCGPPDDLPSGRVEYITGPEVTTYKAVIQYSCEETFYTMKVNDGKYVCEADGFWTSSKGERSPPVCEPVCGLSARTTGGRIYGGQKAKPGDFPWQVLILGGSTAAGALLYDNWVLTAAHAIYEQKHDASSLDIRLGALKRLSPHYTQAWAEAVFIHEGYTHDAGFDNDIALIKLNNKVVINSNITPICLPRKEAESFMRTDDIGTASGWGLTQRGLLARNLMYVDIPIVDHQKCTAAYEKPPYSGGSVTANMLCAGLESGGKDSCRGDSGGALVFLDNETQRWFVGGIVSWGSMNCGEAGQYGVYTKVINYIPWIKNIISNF

T1 sequence (O00187 16-686 limits assumed): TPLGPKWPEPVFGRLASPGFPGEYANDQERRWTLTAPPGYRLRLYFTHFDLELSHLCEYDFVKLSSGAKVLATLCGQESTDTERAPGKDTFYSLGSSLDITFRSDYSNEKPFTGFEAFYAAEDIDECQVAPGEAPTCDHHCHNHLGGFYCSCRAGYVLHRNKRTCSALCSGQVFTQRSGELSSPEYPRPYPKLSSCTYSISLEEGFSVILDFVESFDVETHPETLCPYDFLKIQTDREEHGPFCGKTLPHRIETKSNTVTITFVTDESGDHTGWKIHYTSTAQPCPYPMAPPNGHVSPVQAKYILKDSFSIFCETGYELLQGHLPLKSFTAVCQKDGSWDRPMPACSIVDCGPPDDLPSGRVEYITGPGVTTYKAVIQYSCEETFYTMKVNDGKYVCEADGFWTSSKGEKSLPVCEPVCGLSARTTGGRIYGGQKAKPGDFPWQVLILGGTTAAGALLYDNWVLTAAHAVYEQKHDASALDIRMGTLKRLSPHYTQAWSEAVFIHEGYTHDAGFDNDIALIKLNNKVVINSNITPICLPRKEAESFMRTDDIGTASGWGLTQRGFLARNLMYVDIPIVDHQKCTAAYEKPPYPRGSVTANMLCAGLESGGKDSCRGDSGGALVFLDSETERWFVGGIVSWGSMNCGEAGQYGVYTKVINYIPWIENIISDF
Sequence of Recombinant human MASP-2 (specificity ELISA, Example 14) (O00187 16-686 limits assumed): as above
T4 sequence (O00187 other isoform, or with tags, fused parts or gaps H508Q H508Q limits assumed): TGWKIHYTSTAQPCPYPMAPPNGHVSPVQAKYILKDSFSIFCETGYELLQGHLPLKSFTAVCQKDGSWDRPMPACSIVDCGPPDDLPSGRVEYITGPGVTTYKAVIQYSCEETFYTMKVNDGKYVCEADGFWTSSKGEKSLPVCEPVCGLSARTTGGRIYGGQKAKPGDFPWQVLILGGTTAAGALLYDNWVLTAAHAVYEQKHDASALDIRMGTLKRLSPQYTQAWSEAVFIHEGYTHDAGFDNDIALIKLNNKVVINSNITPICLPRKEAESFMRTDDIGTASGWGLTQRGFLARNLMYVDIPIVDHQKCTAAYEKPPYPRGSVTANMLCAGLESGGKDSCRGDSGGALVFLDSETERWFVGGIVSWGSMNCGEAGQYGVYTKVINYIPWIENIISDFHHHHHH
Sequence of Mouse MASP-2 CCP1/CCP2/SP (Q91WP0 other isoform, or with tags, fused parts or gaps limits assumed): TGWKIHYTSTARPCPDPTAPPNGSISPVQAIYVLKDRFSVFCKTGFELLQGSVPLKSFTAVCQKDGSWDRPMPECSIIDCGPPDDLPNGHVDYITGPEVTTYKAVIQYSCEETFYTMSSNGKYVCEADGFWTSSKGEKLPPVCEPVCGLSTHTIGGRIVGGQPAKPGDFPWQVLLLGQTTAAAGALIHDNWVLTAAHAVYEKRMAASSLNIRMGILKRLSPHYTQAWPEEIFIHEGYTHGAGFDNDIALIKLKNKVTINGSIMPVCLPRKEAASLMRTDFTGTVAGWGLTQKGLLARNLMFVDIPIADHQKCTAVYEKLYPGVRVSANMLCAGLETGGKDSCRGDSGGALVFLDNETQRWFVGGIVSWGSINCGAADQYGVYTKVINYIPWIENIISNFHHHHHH
T2 sequence (O00187 other isoform, or with tags, fused parts or gaps limits assumed): as the sequence (O00187 other isoform, or with tags, fused parts or gaps H508Q H508Q limits assumed) above, with Q222H counted along it
T3 sequence (O00187 other isoform, or with tags, fused parts or gaps limits assumed): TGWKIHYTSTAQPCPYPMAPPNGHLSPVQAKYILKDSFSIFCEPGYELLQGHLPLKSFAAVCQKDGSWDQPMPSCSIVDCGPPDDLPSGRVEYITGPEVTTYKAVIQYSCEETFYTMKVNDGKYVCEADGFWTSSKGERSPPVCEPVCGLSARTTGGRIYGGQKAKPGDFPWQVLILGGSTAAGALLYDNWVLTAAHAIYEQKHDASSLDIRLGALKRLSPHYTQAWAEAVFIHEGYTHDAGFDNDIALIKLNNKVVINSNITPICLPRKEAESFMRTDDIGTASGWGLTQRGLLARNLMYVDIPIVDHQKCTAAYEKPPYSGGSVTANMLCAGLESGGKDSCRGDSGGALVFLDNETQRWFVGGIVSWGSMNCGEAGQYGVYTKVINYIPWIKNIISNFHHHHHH
Sequence of mouse MASP-2 (endogenous, in mouse serum or hirudin plasma) (Q91WP0 20-685 limits assumed): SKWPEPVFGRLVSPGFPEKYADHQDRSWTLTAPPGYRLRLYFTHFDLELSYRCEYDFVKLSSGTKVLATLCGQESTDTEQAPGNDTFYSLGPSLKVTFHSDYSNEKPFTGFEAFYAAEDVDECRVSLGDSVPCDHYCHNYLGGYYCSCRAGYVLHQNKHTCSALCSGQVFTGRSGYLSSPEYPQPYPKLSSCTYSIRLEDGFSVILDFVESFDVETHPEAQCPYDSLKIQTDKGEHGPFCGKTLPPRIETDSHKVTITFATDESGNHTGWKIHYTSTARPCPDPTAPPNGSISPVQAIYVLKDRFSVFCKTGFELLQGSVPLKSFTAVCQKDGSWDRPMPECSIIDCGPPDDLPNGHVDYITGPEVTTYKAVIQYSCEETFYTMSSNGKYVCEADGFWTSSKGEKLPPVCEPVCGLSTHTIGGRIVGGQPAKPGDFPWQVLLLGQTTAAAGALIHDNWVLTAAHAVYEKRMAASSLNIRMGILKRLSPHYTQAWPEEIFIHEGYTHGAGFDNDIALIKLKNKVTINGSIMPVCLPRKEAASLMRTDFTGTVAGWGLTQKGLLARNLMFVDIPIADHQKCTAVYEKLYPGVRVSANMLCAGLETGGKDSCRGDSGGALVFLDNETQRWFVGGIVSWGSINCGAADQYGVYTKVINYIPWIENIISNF

B1: mAb OMS858 (humanized anti-MASP-2 antibody) (antibody, V domains shown)
VH: QVQLVQSGAEVKKPGASVKVSCKASGYTFTNHHMHWLRQAPGQGLEWIGDIDASDSETHYIEKFKDRATLTIDKSSSTAYMELSSLRSEDTAVYYCARGDITTTLRYFDVWGQGTLVTVSS
VL: DIQLTQSPSSLSASVGDRVTITCSASSSVRYMYWYQQKPGKAPKLLIYDTSNLASGVPSRFSGSGSGTDNTLTISSLQPEDFATYYCQQWSSYPLTFGQGTKVEIKR
notes: also called antibody OMS858; biotinylated OMS858
C5b-9 deposition, lectin pathway-specific conditions (Wieslab), human serum, IC50 [1]: 0.81 nM
MAC deposition under lectin pathway-specific conditions (Wieslab COMPL300), IC50 [1]: ~1 nM
Kd [2]: 32.9 nM
Kd [3]: 4.52 nM
Kd (Cyno MASP-2 CCP1/CCP2/SP): 8.23 nM
Kd [4]: ~2000 nM
Kd [5]: 0.042 µg/mL and 0.051 µg/mL
lectin-dependent C4 activation in 50% human serum, IC50, Experiment 1 [6]: 0.89 nM
lectin-dependent C4 activation in 50% human serum, IC50, Experiment 2 [6]: 0.86 nM
lectin-dependent C4 activation in 50% human serum, IC50, Experiment 3 [6]: 1.52 nM
lectin-dependent C4 activation in 50% human serum, IC50, MEAN [6]: 1.09 nM
Kd (MASP-1): > 100 µg/mL
Kd (C1r): > 100 µg/mL
Ratio (IC50-Query/IC50-Human), lectin-dependent C4 activation [7]: 10.9 fold
Ratio (IC50-Query/IC50-Human), lectin-dependent C4 activation [8]: 40.5 fold
